# Reference: patent publication US20260022364A1, “ERT2 MUTANTS, INDUCIBLE CELL DEATH SYSTEMS, AND USES THEREOF” (Senti Biosciences, Inc., priority 2023, published 2026)
# What was measured:
# Type in all cases: cell-based
# [1] = system: NK cells; test: Validation of ERT2 mutants with mCherry reporter in NK cells; settings: primary NK cells
# Protocol: After 10 days of feeder cell activation, NK cells were co-transduced with ERT2 mutant virus and reporter SB01066 virus (Experimental Set-up 1). On Day 2 after transduction, transduced NK cells were treated with endoxifen or 4-OHT at a range of concentrations of 0 nM, 0.01 nM, 0.1 nM, 1 nM, and 10 nM. On Day 4, cells were checked for mCherry expression by flow cytometry.
# [2] = system: dimerization of two modified ER-LBDs; test: Transcriptional reporter assay for dimerization activity; settings: data not shown
# [3] = system: HEK293T cells; test: Suicide-switch assay, killing efficiency by incucyte; settings: for killing efficiency: 48 hours
# Protocol: A 24-well dish was seeded with 25,000 Lent-X HEK293T cells (Takara, Catalog #: 632180). The next day, the cells were transduced with 25,000 pg of virus for constructs SB07351-SB07354: ERT2mut-casp9 constructs tagged with mCherry to track successfully transduced cells in a population. The constructs each take the form ERT2*mut-Casp9-IRES-RFP (SB07351=mut81; SB07352=mut88; SB07353=mut63; SB07354=mut41). The next day, transduced cells were split into a 96-well plate with ˜5,000 cells in each well and loaded into an incucyte to quantify cell expansion via images every 2 hours detecting mCherry expression. Media was exchanged 24 hours later with new media with indicated concentration of 4-OHT or no drug added. Cells continued to be imaged by the incucyte every 2 hours for 48 hours post exchange of media.
# Cell death was quantified via detection of suicide-switch linked mCherry expression using the following formula:
# Killing efficiency=100−((mCherry expression in drug treated population)/(mCherry expression in ND population)) [NOTE: mCherry background prevents 100% KE from being calculated; >95% killing efficiency is considered complete killing in this assay]
# [4] = system: HEK293T cells; test: Time course of ERT2 mutant safety switch activity in HEK cells
# Protocol: Twenty-four hours later, ˜3k transduced cells were plated into each well of a 96w plate and cultured in 100 μL of drug-free growth media (DMEM+10% FBS, 1% p-s, 1% Glutamax).
# Killing efficiency was calculated by taking the average mCherry area quantified by the incucyte in the drug treated sample divided by the mCherry area quantified in the ND conditions of the same transduced population and subtracting that fraction from 1. 95% KE was defined as complete killing by previous studies with this same mCherry reporter being treated with Puromycin, a toxic drug that results in complete killing of HEK293T cells within 48 hours of application.
# [5] = system: primary T cells; test: Killing assay of safety kill switch in transduced primary T cells
# Protocol: Primary T cells isolated from a donor were thawed and stimulated with Dynabeads for 24 hours. Next, ERT2*mut81-Casp9-IRES-RFP (SB07351, prepared as lentivirus) was transduced into the T cells. Two days post transduction, cell media were replaced with T Cell media containing IL-2 to promote expansion. 1 week post transduction, cells were quantified for transduction efficiency (Safety kill switch transduction was tracked by expression of RFP tag) by flow cytometry and then loaded into incucyte for quantification of killing efficiency.
# • D0-D1: Expansion of cells in drug free T cell media (with IL-2) • D1-onward: Drug free T cell media (with IL-2) was exchanged with media containing indicated drug conditions (as well as IL-2) • Killing efficiency was calculated by the following formula:
# 1−(RFP expression of cells in drug treated conditions)/(RFP expression of transduced cells in the No Drug condition)
Molecule,4-OHT concentration at which variant was sensitive (mCherry) [1] [nM],endoxifen concentration at which variant was sensitive (mCherry) [1] [nM],dimerization of two modified ER-LBDs to 4-OHT [2],killing efficiency ([3]; 0.001 pM of 4-OHT) [%],killing efficiency ([3]; down to 0.01 pM of 4-OHT) [%],"concentration of efficient killing, fold lower than the Ctrough of 4-OHT in humans ([3]; humans taking FDA approved daily dose of Tamoxifen) [×]","killing efficiency and rate compared to the WT ERT2 safety switch ([4]; 0.25 nM endoxifen and 0.04 nM 4-OHT, 2.5 nM endoxifen+0.4 nM 4-OHT)","sensitivity to Estradiol ([4]; 2.5 nM estradiol, long exposure times)",time to complete killing ([5]; 2.5 nM Endoxifen & 0.4 nM 4-OHT) [h],cell killing without inducer ([5]; absence of the small molecule inducer cocktail),"sensitivity to Estradiol ([5]; day 5, Estradiol 2.2 pM)","killing efficiency ([5]; day 5, endoxifen 1 pM and higher)","killing efficiency ([5]; day 5, endoxifen as low as 0.001 pM)","sensitivity to Estradiol ([5]; over time, 2.2 pM Estradiol)"
SB06136: ZF10-1_p65_ERT2 mutant; L384M/L391V/N413D/M421L/S463P/H524L (protein) AGDMRAANLWPSPLMIKRSKKNSLALSLTADQMVSALLDAEPPILYSEYDPTRPFSEASMMGLLTNLADRELVHMINWAKRVPGFVDLTLHDQVHLLECAWMEILMIGVVWRSMEHPVKLLFAPNLLLDRDQGKCVEGLVEIFDMLLATSSRFRMMNLQGEEFVCLKSIILLNSGVYTFLPSTLKSLEEKDHIHRVLDKITDTLIHLMAKAGLTLQQQHQRLAQLLLILSHIRHMSNKGMELLYSMKCKNVVPLYDLLLEAADAHRLHAPTSRGGASVEETDQSHLATAGSTSSHSLQKYYITGEAEGFPAT,0.1,0.1,did not directly alter dimerization,–,–,–,–,–,–,–,–,–,–,–
SB07351: suicide-switch construct ERT2*mut-Casp9-IRES-RFP with mut81 (protein) AGDMRAANLWPSPLMIKRSKKNSLALSLTADQMVSALLDAEPPILYSEYDPTRPFSEASMMGLLTNLADRELVHMINWAKRVPGFVDLTLHDQVHLLECAWMEILMIGVVWRSMEHPVKLLFAPNLLLDRDQGKCVEGLVEIFDMLLATSSRFRMMNLQGEEFVCLKSIILLNSGVYTFLPSTLKSLEEKDHIHRVLDKITDTLIHLMAKAGLTLQQQHQRLAQLLLILSHIRHMSNKGMELLYSMKCKNVVPLYDLLLEAADAHRLHAPTSRGGASVEETDQSHLATAGSTSSHSLQKYYITGEAEGFPAT,–,–,–,~80,> 95,400,"greater killing efficiency, and at a faster rate",modest activity at late time points,≤ 48,did not induce cell killing,insensitivity,>= 95%,Strong killing efficiency,insensitive
